For test [1], the target named is multiple related peptides of hepacivirus C NS4A (animal virus peptide array). In words: animal virus peptide array, 2.5 ug/ml.
For test [2], the target named is T1, bovine serum albumin (Fraction V, Fisher BP1600) (bovine, UniProt P02769 25-607).
T1 construct: also called BSA
In words: polyreactivity ELISA. For orientation: In an ELISA, binding on a coated surface is turned into a signal by an enzyme label.

Test [3] has as its target integral membrane protein 2B (ITM2B) (human, UniProt Q9Y287 1-266). Nature of the test: HuProt v4.0 human proteome array, 1 ug/ml.
Test [4] deals with KD peptide (NS4A peptide 2), BSA conjugated. In words: ELISA.

Among the data in patent publication US20220119502A1 (ANN AND ROBERT H LURIE CHILDREN S HOSPITAL OF CHICAGO, published 2022) are spot intensity (fluorescence units) (fluorescence units), binding result and OD450 (KD peptide minus scrambled peptide) values, retold here.

Positions count from the first letter of the chain named. Bounds are passed on as bounds.

T1 sequence (P02769 25-607 limits assumed): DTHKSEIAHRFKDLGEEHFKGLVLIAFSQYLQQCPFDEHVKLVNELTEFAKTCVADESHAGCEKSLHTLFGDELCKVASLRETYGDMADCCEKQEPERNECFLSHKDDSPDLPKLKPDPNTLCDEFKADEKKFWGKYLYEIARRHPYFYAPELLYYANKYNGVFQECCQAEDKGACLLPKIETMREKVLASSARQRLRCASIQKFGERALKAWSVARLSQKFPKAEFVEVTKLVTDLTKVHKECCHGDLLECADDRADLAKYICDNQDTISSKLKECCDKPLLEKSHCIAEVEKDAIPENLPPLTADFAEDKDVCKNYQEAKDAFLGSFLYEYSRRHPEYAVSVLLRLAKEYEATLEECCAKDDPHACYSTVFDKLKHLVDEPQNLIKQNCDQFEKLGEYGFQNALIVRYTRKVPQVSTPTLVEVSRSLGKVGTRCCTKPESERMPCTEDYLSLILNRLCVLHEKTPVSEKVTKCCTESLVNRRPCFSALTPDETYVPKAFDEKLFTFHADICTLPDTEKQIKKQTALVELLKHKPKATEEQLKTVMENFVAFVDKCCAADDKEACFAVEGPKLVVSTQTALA
Chain of integral membrane protein 2B (ITM2B) (Q9Y287 whole entry): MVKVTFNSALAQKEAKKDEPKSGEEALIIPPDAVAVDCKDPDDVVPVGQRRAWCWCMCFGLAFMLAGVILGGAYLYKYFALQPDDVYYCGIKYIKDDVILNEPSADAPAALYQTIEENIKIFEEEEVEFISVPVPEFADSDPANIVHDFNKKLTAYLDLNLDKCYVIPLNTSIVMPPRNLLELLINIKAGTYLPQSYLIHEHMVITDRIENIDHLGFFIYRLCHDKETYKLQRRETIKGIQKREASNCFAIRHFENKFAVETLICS

B1: KD4-2H4 (rabbit version) (antibody, V domains shown)
VH: EVQLVESGGGLVQPGGSLRLSCAASGFTFSSYWMYWVRQAPGKGLVWVSRINSDGSTTNYADSVKGRFTISRDNAKNTLYLQMNSLRAEDTAVYFCARYAHLGIGWYFDLWGRGTLVTVSS
VL: QSALTQPRSVSGSPGQSVTISCTGTSSDVGGYNYVSWYQQHPGKAPKLMIYDVSKRPSGVPDRFSGSKSGNTASLTISGLQAEDEADYYCCSYAGSYTLLFGGGTKLTVL
notes: also called Rabbit KD4-2H4
B1: in test [1], the spot intensity (fluorescence units) (fluorescence units) is over 200. Also, the binding result in test [2] was “no binding (tested: 10, 1, and 0.1 ug/ml)”.

B2: KD4-2H4 (human version) (antibody, V domains shown)
VH: B1 VH
VL: B1 VL
notes: also called human KD4-2H4
With B2, in test [3], the binding result is on record as “binds”.

B3: KD6-2B2 (antibody, V domains shown)
VH: EVQLVESGGGVAQPGTSLRLSCEASGFTFRDYAMRWVRQAPGKGLEWVAFIWNDGSKKYYTDSVRGRFTISRDNSKNMLYLQMDSLRAEDTALYYCARKMSEDDAFDLWGQGTMVTV
VL: DIQMTQSPSTLSASAGDRVTITCRASQSVSKYLAWYQQKPGKAPRLLIYKASSLQSGVPSRFSGSGSGTEFTLTISSLQPDDFATYYCQHYNTYPSWTFGQGTKVEIK
notes: also called rabbit KD6-2B2; KD36-2B32
In the case of B3, the binding result in test [2] is “no binding (tested: 10, 1, and 0.1 ug/ml)”.

B4: KD8-1B10 (antibody, V domains shown)
VH: EVQLVESGGGLVQPGGSLRLSCAASGFTFSDHYMDWVRQVPRKGLEWVGRARNKANSYTTEYAASVKGRFTISRDDSKNSLYLQMNSLKSEDTAVYYCARFLLIADAFDIWGQGTMVTV
VL: DIQMTQSPSSLSASLGDRVTITCRASQGIRHDLGWYQQKPGKAPKLLIYGASTLQTGVPSRFSGSGSGTDFTLTISSLQPEDFATYYCLQKYNYPLTFGGGTKVEIK
B4: the binding result in test [2] is “no binding (tested: 10, 1, and 0.1 ug/ml)”.

B5: KD8-1D4 (antibody, V domains shown)
VH: B4 VH with H32Y, V40A, R42G, A51T, S90T, I104V
VL: B4 VL with L15V, H31N, T53S, T56S, F83I, K91E, N93T
Regarding B5, in test [2], the binding result is “no binding (tested: 10, 1, and 0.1 ug/ml)”.

B6: KD6-1A10 (antibody, V domains shown)
VH: VQLVESGGGVVQPGRSLRLSCAASGFSFSNYFMHWVRHVPGKGLEWLATIWYDGSDKYYVDSVKGRFTISRDNSKNTLYLQMGSLRAEDTAMYYCAKGRQRGYYYDMGGYYVFDSWGQGTLVTVSS
VL: QSVLTQPPSASGTPGQGVTISCSGSRSNIGSNTVNWYRQFPGTAPKLLIYKNNQRPSGVPDRFSGSKPGTSAYLAITGLQSDDQADYYCAAWDDSLKGVVFGGGTKLTVL
Turning to B6, the binding result in test [2] is “no binding (tested: 10, 1, and 0.1 ug/ml)”.

B7: KD9-1B5 (antibody, V domains shown)
VH: QVQLQESGPGLVKPSETLSLTCTVSGGSINSYYWSWIRQPPGKGLEWIGYIYYSGSTNYNPSLKSRVTISVDTSKNQFSLRLSSVTAADTAVYYCARHPTAGTSYGMDVWGQGTTVTV
VL: QSALTQPASESGSPGQSITISCTGTTSDVGSYNLVSWYQQHPGKAPKLMIYEGTKRPSGVSNRFSGSKSGNTASLTISGLQPEDEADYYCCSYAGTTTYVFGTGTKVTVL
B7: the OD450 (KD peptide minus scrambled peptide) in test [4] is under 0.04 OD.
